Measured values taken from patent publication US10801046B2, “Methods and materials for biosynthesizing multifunctional, multivariate molecules via carbon chain modification” (INVISTA NORTH AMERICA S.A.R.L., priority 2016, dated 2020).

What was measured:
Assay type in all cases: biochemical
[1] = Esterase activity assay, monomethyl heptanedioate to heptanedioic acid, LC-MS; settings: esterase assays
Protocol: A nucleotide sequence encoding a C-terminal His-tag may be added to the gene from Bacillus subtilis encoding the esterase of SEQ ID NO: 50 (NCBI Reference Sequence: NP_388108.1) such that a C-terminal HIS tagged esterase is produced. The resulting modified gene is cloned into a pET28b+ expression vector under control of the T7 promoter and the expression vector is transformed into a BL21[DE3] E. coli host. The resulting recombinant E. coli strain can be cultivated at 37° C. in a 500 mL shake flask culture containing 100 mL LB media and antibiotic selection pressure, with shaking at 230 rpm. Each culture is induced overnight at 18° C. using 0.3 mM IPTG.
The pellet from each induced shake flask culture can be harvested via centrifugation. Each pellet is resuspended and lysed via sonication. The cell debris is separated from the supernatant via centrifugation. The esterase can be purified from the supernatant using Ni-affinity chromatography, buffer exchanged and concentrated into 20 mM HEPES buffer (pH=7.5) via ultrafiltration and stored at 4° C.
Enzyme activity assays converting monomethyl heptanedioate to heptanedioic acid are performed in triplicate in a buffer composed of a final concentration of 25 mM Tris-HCl buffer (pH=7.0) and 5 [mM] monomethyl heptanedioic acid. […] The formation of heptanedioic acid can be quantified via LC-MS.

[2] = Carboxylate reductase activity, heptanedioate to 7-oxoheptanoate, NADPH consumption at 340 nm; settings: enhanced by gene product of sfp, 2 mM substrate, 20 min, against empty vector control, FIG. 43
Protocol: A sequence encoding a HIS-tag was added to the genes from Segniliparus rugosus and Segniliparus rotundus that encode the carboxylate reductases of SEQ ID NOs: 31 (GenBank Accession No. EFV11917.1) and 38 (GenBank Accession No. ADG98140.1), respectively, such that N-terminal HIS tagged carboxylate reductases could be produced. Each of the modified genes was cloned into a pET Duet expression vector along with a sfp gene encoding a HIS-tagged phosphopantetheine transferase from Bacillus subtilis, both under the T7 promoter. Each expression vector was transformed into a BL21[DE3] E. coli host and the resulting recombinant E. coli strains were cultivated at 37° C. in a 250 mL shake flask culture containing 50 mL LB media and antibiotic selection pressure, with shaking at 230 rpm. Each culture was induced overnight at 37° C. using an auto-induction media.
The pellet from each induced shake flask culture was harvested via centrifugation. Each pellet was resuspended and lysed via sonication, and the cell debris was separated from the supernatant via centrifugation. […]
Enzyme activity assays (i.e., from heptanedioate to 7-oxoheptanoate) were performed in triplicate in a buffer composed of a final concentration of 50 mM HEPES buffer (pH=7.5), 2 mM heptanedioate, 10 mM MgCl2, 1 mM ATP, and 1 mM NADPH. […] The consumption of NADPH was monitored by absorbance at 340 nm.

[3] = Carboxylate reductase activity, 7-hydroxyheptanoate to 7-hydroxyheptanal, NADPH consumption at 340 nm; settings: enhanced by gene product of sfp, 20 min, against empty vector control, FIG. 44
[4] = Carboxylate reductase activity, N7-acetyl-7-aminoheptanoate to N7-acetyl-7-aminoheptanal, NADPH consumption at 340 nm; settings: enhanced by gene product of sfp, 2 mM substrate, 20 min, against empty vector control, FIG. 45
Protocol: The activity of each of the N-terminal His-tagged carboxylate reductases of SEQ ID NOs: 29 (GenBank Accession No. ABK71854.1), 37 (Genbank Accession No. EIV11143.1), and 38 (GenBank Accession No. ADG98140.1) (see Examples 4) for converting N7-acetyl-7-aminoheptanoate to N7-acetyl-7-aminoheptanal was assayed in triplicate in a buffer composed of a final concentration of 50 mM HEPES buffer (pH=7.5), 2 mM N7-acetyl-7-aminoheptanoate, 10 mM MgCl2, 1 mM ATP, and 1 mM NADPH. The assays were initiated by adding purified carboxylate reductase and phosphopantetheine transferase or the empty vector control to the assay buffer containing the N7-acetyl-7-aminoheptanoate then incubated at room temperature for 20 min. The consumption of NADPH was monitored by absorbance at 340 nm.

[5] = Carboxylate reductase activity, 7-oxoheptanoate to heptanedial, NADPH consumption at 340 nm; settings: enhanced by gene product of sfp, 2 mM substrate, 20 min, against empty vector control, FIG. 46
Protocol: The N-terminal His-tagged carboxylate reductase of SEQ ID NO: 38 (GenBank Accession No. ADG98140.1) (see Example 4) was assayed using 7-oxoheptanoate as substrate. The enzyme activity assay was performed in triplicate in a buffer composed of a final concentration of 50 mM HEPES buffer (pH=7.5), 2 mM 7-oxoheptanoate, 10 mM MgCl2, 1 mM ATP and 1 mM NADPH. The enzyme activity assay reaction was initiated by adding purified carboxylate reductase and phosphopantetheine transferase or the empty vector control to the assay buffer containing the 7-oxoheptanoate and then incubated at room temperature for 20 min. The consumption of NADPH was monitored by absorbance at 340 nm.

acceptance of heptanedioate as substrate, forming 7-oxoheptanoate [2] | acceptance of 7-oxoheptanoate as substrate, forming heptanedial [5] | Molecule | methyl ester hydrolysis of a C7 compound [1] | acceptance of 7-hydroxyheptanoate as substrate, forming 7-hydroxyheptanal [3] | acceptance of N7-acetyl-7-aminoheptanoate as substrate, forming N7-acetyl-7-aminoheptanal [4]
 |  | esterase from Streptomyces diastatochromogenes: estA from Streptomyces diastatochromogenes classified under EC 3.1.1.1 (protein, Streptomyces diastatochromogenes) MARFRTRLALLGSAAALAAGAVVPAQLAGAQPAAAAADLQWVALGDSYTAGVIRAAGDAIDYPRDGCERTDRSYPQVIERDLYGLFDLTNVSCGAATIENVSDTPQYPIGRHMPPFSEDPDHPFPPVPPQSEAVGPGTDVITVGVGGNTLGFADILTKCQELGGESGGEGTPCKGALGSGIKARLDKVSQGYDRMLTVLHERGPKAKILTVGYPTVIPENTADCGYGDLTKFGTITQGDLAWLRQDVLEPLNKTIEDSAATQEAADFVNLYAPSQGHSVCDADKWVEGILTVSPNQDPQLSFVHPNASGHRNAADHVEEAMLNAIS | affected the methyl ester hydrolysis of a C7 compound |  | 
accepted heptanedioate as substrate | accepted 7-oxoheptanoate as substrate | SEQ ID NO: 38: Segniliparus rotundus carboxylate reductase (protein, listed as Segniliparus rotundus, Segniliparus rotundus (strain ATCC BAA-972 / CDC 1076 / CIP 108378 / DSM 44985 / JCM 13578), Segniliparus rotundus carboxylate reductase) MTQSHTQGPQASAAHSRLARRAAELLATDPQAAATLPDPEVVRQATRPGLRLAERVDAILSGYADRPALGQRSFQTVKDPITGRSSVELLPTFDTITYRELRERATAIASDLAHHPQAPAKPGDFLASIGFISVDYVAIDIAGVFAGLTAVPLQTGATLATLTAITAETAPTLFAASIEHLPTAVDAVLATPSVRRLLVFDYRAGSDEDREAVEAAKRKIADAGSSVLVDVLDEVIARGKSAPKAPLPPATDAGDDSLSLLIYTSGSTGTPKGAMYPERNVAHFWGGVWAAAFDEDAAPPVPAINITFLPLSHVASRLSLMPTLARGGLMHFVAKSDLSTLFEDLKLARPTNLFLVPRVVEMLYQHYQSELDRRGVQDGTREAEAVKDDLRTGLLGGRILTAGFGSAPLSAELAGFIESLLQIHLVDGYGSTEAGPVWRDGYLVKPPVTDYKLIDVPELGYFSTDSPHPRGELAIKTQTILPGYYKRPETTAEVFDEDGFYLTGDVVAQIGPEQFAYVDRRKNVLKLSQGEFVTLAKLEAAYSSSPLVRQLFVYGSSERSYLLAVIVPTPDALKKFGVGEAAKAALGESLQKIARDEGLQSYEVPRDFIIETDPFTVENGLLSDARKSLRPKLKEHYGERLEAMYKELADGQANELRDIRRGVQQRPTLETVRRAAAAMLGASAAEIKPDAHFTDLGGDSLSALTFSNFLHDLFEVDVPVGVIVSAANTLGSVAEHIDAQLAGGRARPTFATVHGKGSTTIKASDLTLDKFIDEQTLEAAKHLPKPADPPRTVLLTGANGWLGRFLALEWLERLAPAGGKLITIVRGKDAAQAKARLDAAYESGDPKLAGHYQDLAATTLEVLAGDFSEPRLGLDEATWNRLADEVDFISHPGALVNHVLPYNQLFGPNVAGVAEIIKLAITTRIKPVTYLSTVAVAAGVEPSALDEDGDIRTVSAERSVDEGYANGYGNSKWGGEVLLREAHDRTGLPVRVFRSDMILAHQKYTGQVNATDQFTRLVQSLLATGLAPKSFYELDAQGNRQRAHYDGIPVDFTAESITTLGGDGLEGYRSYNVFNPHRDGVGLDEFVDWLIEAGHPITRIDDYDQWLSRFETSLRGLPESKRQASVLPLLHAFARPGPAVDGSPFRNTVFRTDVQKAKIGAEHDIPHLGKALVLKYADDIKQLGLL |  | accepted 7-hydroxyheptanoate as substrate | accepted N7-acetyl-7-aminoheptanoate as substrate
